Assay [1] concerns the target GST-RhoC (wild type) (human) (UniProt P08134).
The target of assay [2] is GST-RhoC-43T (human) (UniProt P08134).

B1: GST-XPLN (full length) (enzyme)
chain: MVAKDYPFYLTVKRANCSLELPPASGPAKDAEEPSNKRVKPLSRVTSLANLIPPVKATPLKRFSQTLQRSISFRSESRPDILAPRPWSRNAAPSSTKRRDSKLWSETFDVCVNQMLTSKEIKRQEAIFELSQGEEDLIEDLKLAKKAYHDPMLKLSIMTEQELNQIFGTLDSLIPLHEELLSQLRDVRKPDGSTEHVGPILVGWLPCLSSYDSYCSNQVAAKALLDHKKQDHRVQDFLQRCLESPFSRKLDLWNFLDIPRSRLVKYPLLLREILRHTPNDNPDQQHLEEAINIIQGIVAEINTKTGESECRYYKERLLYLEEGQKDSLIDSSRVLCCHGELKNNRGVKLHVFLFQEVLVITRAVTHNEQLCYQLYRQPIPVKDLLLEDLQDGEVRLGGSLRGAFSNNERIKNFFRVSFKNGSQSQTHSLQANDTFNKQQWLNCIRQAKETVLCAAGQAGVLDSEGSFLNPTTGSRELQGETKLEQMDQSDSESDCSMDTSEVSLDCERMEQTDSSCGNSRHGESNV
As to B1, the values for the XPLN-catalysed mant-nucleotide exchange in vitro, fold stimulation in assay [1] and in assay [2] were 1.1 fold and 1.4 fold, respectively.

These data come from article PMC3398911.
